Measured values taken from paper PMC9482650, “Quantitative fragmentomics allow affinity mapping of interactomes” (Nature Communications, 2022).

T1: DVL3, Q92997
T1 sequence (Q92997 244-331, limits assumed, looked up): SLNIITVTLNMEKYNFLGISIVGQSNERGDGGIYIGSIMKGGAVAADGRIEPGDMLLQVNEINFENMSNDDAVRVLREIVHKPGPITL

T2: HTRA4, P83105
T2 sequence (P83105 378-476, limits assumed, looked up): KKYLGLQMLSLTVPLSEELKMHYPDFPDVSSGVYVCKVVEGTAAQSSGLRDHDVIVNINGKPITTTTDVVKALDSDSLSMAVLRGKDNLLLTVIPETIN

T3: FRMPD1, Q5SYB0
T3 sequence (Q5SYB0 52-145, limits assumed, looked up): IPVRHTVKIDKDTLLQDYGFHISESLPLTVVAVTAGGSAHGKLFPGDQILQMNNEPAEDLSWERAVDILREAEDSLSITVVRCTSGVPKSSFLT

T4: APBA2_1, Q99767
T4 sequence (Q99767 563-664, limits assumed, looked up): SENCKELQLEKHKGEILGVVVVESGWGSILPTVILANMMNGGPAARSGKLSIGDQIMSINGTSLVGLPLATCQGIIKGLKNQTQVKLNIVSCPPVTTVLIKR

T5: GRIP1_7, Q9Y3R0
T5 sequence (Q9Y3R0 999-1096, limits assumed, looked up): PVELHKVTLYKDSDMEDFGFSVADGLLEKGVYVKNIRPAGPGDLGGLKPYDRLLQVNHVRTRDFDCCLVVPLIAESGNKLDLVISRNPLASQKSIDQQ

T6: SNTG1, Q9NSN8
T6 sequence (Q9NSN8 52-150, limits assumed, looked up): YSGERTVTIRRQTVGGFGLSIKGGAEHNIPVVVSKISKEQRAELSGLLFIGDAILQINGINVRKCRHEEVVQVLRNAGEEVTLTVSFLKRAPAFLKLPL

T7: CARD11, Q9BXL7
T7 sequence (Q9BXL7 662-765, limits assumed, looked up): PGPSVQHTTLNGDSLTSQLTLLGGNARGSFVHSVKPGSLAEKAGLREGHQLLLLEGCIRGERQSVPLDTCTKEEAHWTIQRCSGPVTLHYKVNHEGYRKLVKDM

T8: APBA2_2, Q99767
T8 sequence (Q99767 654-744, limits assumed, looked up): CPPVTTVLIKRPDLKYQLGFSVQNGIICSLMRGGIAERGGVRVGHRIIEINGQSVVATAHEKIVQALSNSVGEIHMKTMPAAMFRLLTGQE

T9: MPP2, Q14168
T9 sequence (Q14168 180-250, limits assumed, looked up): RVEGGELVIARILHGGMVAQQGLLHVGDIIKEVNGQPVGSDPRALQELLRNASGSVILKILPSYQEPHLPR

T10: TIAM2, Q8IVF5
T10 sequence (Q8IVF5 885-986, limits assumed, looked up): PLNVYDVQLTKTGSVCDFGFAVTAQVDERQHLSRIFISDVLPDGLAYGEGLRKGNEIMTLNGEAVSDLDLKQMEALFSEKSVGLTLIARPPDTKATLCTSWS

T11: PDZD7_3, Q9H5P4
T11 sequence (Q9H5P4 857-944, limits assumed, looked up): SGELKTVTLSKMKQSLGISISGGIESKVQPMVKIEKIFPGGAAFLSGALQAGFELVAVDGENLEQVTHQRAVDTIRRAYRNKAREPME

T12: MPP7, Q5T2T1
T12 sequence (Q5T2T1 134-230, limits assumed, looked up): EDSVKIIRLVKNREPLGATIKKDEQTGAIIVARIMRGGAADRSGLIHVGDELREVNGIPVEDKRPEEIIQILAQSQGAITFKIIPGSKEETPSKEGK

T13: MPDZ_12, O75970
T13 sequence (O75970 1857-1958, limits assumed, looked up): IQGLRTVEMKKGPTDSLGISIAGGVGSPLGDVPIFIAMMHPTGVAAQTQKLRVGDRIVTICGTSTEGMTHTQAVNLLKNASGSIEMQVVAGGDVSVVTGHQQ

T14: NHERF3_3, Q5T2W1
T14 sequence (Q5T2W1 238-333, limits assumed, looked up): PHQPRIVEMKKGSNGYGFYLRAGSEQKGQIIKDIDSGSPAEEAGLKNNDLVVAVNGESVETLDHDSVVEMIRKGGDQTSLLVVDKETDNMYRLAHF

T15: LNX2_2, Q8N448
T15 sequence (Q8N448 334-432, limits assumed, looked up): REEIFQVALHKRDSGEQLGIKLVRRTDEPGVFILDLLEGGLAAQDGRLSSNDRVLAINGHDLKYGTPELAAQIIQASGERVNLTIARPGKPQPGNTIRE

B1: EGLN1, Q9GZT9 (peptide)
chain: PSDSVGKDVF

target: AHNAK1, Q09666; assay: holdup assay; set-up: key: below the threshold = too weak to quantify, mostly under pKd 3.1 to 4; conditions: plain residues with an end cap or a label only (N-terminal biotin on a linker: ado-ado)
Sequence (Q09666 4-100): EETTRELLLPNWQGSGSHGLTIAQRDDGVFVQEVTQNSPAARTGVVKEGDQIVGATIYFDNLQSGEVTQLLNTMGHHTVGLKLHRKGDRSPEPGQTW

**Q.** Which pKd does the source give for B1 here?
**A.** below the threshold

target: TJP1_2, Q07157; assay: holdup assay; set-up: key: below the threshold = too weak to quantify, mostly under pKd 3.1 to 4; conditions: plain residues with an end cap or a label only (N-terminal biotin on a linker: ado-ado)
Sequence (Q07157 181-274): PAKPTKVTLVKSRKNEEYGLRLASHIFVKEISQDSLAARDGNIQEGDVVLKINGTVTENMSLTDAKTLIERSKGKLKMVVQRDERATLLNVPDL

**Q.** With B1 as the binder, how does the pKd read?
**A.** below the threshold

target: LIMK2, P53671; assay: holdup assay; set-up: key: below the threshold = too weak to quantify, mostly under pKd 3.1 to 4; conditions: plain residues with an end cap or a label only (N-terminal biotin on a linker: ado-ado)
Sequence (P53671 143-248): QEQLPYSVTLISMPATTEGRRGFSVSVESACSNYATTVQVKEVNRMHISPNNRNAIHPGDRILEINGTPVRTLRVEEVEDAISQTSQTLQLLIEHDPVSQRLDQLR

**Q.** B1 was tested. Which pKd did it give?
**A.** below the threshold

target: T1, DVL3, Q92997; assay: holdup assay; set-up: key: below the threshold = too weak to quantify, mostly under pKd 3.1 to 4; conditions: plain residues with an end cap or a label only (N-terminal biotin on a linker: ado-ado)

**Q.** For B1, which pKd is on record?
**A.** below the threshold

target: T2, HTRA4, P83105; assay: holdup assay; set-up: key: below the threshold = too weak to quantify, mostly under pKd 3.1 to 4; conditions: plain residues with an end cap or a label only (N-terminal biotin on a linker: ado-ado)

**Q.** Which pKd does the source give for B1 here?
**A.** below the threshold

target: T3, FRMPD1, Q5SYB0; assay: holdup assay; set-up: key: below the threshold = too weak to quantify, mostly under pKd 3.1 to 4; conditions: plain residues with an end cap or a label only (N-terminal biotin on a linker: ado-ado)

**Q.** For B1, which pKd is on record?
**A.** below the threshold

target: GRIP2_3, Q9C0E4; assay: holdup assay; set-up: key: below the threshold = too weak to quantify, mostly under pKd 3.1 to 4; conditions: plain residues with an end cap or a label only (N-terminal biotin on a linker: ado-ado)
Sequence (Q9C0E4 238-339): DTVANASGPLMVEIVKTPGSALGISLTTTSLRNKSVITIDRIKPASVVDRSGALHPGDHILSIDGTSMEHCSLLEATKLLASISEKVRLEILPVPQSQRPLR

**Q.** How did the pKd turn out when B1 was run?
**A.** below the threshold

target: Inadl_3, Q8NI35; assay: holdup assay; set-up: key: below the threshold = too weak to quantify, mostly under pKd 3.1 to 4; conditions: plain residues with an end cap or a label only (N-terminal biotin on a linker: ado-ado)
Sequence (Q8NI35 359-469): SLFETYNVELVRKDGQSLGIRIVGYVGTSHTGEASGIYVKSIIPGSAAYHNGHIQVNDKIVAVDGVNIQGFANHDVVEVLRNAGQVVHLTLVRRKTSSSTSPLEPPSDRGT

**Q.** B1 was tested. Which pKd did it give?
**A.** below the threshold

target: ARHGEF12, Q9NZN5-2; assay: holdup assay; set-up: key: below the threshold = too weak to quantify, mostly under pKd 3.1 to 4; conditions: plain residues with an end cap or a label only (N-terminal biotin on a linker: ado-ado)
Sequence (Q9NZN5 other isoform, or with tags, fused parts or gaps): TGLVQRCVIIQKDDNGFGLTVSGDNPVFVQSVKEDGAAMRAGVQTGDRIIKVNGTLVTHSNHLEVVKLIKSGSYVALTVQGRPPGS

**Q.** B1 was tested. Which pKd did it give?
**A.** below the threshold

target: T4, APBA2_1, Q99767; assay: holdup assay; set-up: key: below the threshold = too weak to quantify, mostly under pKd 3.1 to 4; conditions: plain residues with an end cap or a label only (N-terminal biotin on a linker: ado-ado)

**Q.** With B1 as the binder, how does the pKd read?
**A.** below the threshold

target: T5, GRIP1_7, Q9Y3R0; assay: holdup assay; set-up: key: below the threshold = too weak to quantify, mostly under pKd 3.1 to 4; conditions: plain residues with an end cap or a label only (N-terminal biotin on a linker: ado-ado)

**Q.** B1 was tested. Which pKd did it give?
**A.** below the threshold

target: SCRIB_1, Q14160; assay: holdup assay; set-up: key: below the threshold = too weak to quantify, mostly under pKd 3.1 to 4; conditions: plain residues with an end cap or a label only (N-terminal biotin on a linker: ado-ado)
Sequence (Q14160 718-814): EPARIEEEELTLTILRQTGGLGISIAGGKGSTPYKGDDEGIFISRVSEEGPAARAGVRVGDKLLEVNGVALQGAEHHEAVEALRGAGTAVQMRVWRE

**Q.** B1 was tested. Which pKd did it give?
**A.** below the threshold

target: T6, SNTG1, Q9NSN8; assay: holdup assay; set-up: key: below the threshold = too weak to quantify, mostly under pKd 3.1 to 4; conditions: plain residues with an end cap or a label only (N-terminal biotin on a linker: ado-ado)

**Q.** B1 was tested. Which pKd did it give?
**A.** below the threshold

target: MAST2, Q6P0Q8; assay: holdup assay; set-up: key: below the threshold = too weak to quantify, mostly under pKd 3.1 to 4; conditions: plain residues with an end cap or a label only (N-terminal biotin on a linker: ado-ado)
Sequence (Q6P0Q8 1099-1202): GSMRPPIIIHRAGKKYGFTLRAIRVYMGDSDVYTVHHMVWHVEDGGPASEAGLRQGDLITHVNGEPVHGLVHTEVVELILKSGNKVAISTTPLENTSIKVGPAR

**Q.** B1 was tested. Which pKd did it give?
**A.** below the threshold

target: T7, CARD11, Q9BXL7; assay: holdup assay; set-up: key: below the threshold = too weak to quantify, mostly under pKd 3.1 to 4; conditions: plain residues with an end cap or a label only (N-terminal biotin on a linker: ado-ado)

**Q.** With B1 as the binder, how does the pKd read?
**A.** below the threshold

target: T8, APBA2_2, Q99767; assay: holdup assay; set-up: key: below the threshold = too weak to quantify, mostly under pKd 3.1 to 4; conditions: plain residues with an end cap or a label only (N-terminal biotin on a linker: ado-ado)

**Q.** With B1 as the binder, how does the pKd read?
**A.** below the threshold

target: T9, MPP2, Q14168; assay: holdup assay; set-up: key: below the threshold = too weak to quantify, mostly under pKd 3.1 to 4; conditions: plain residues with an end cap or a label only (N-terminal biotin on a linker: ado-ado)

**Q.** How did the pKd turn out when B1 was run?
**A.** below the threshold

target: T10, TIAM2, Q8IVF5; assay: holdup assay; set-up: key: below the threshold = too weak to quantify, mostly under pKd 3.1 to 4; conditions: plain residues with an end cap or a label only (N-terminal biotin on a linker: ado-ado)

**Q.** For B1, which pKd is on record?
**A.** 4.05

target: T11, PDZD7_3, Q9H5P4; assay: holdup assay; set-up: key: below the threshold = too weak to quantify, mostly under pKd 3.1 to 4; conditions: plain residues with an end cap or a label only (N-terminal biotin on a linker: ado-ado)

**Q.** With B1 as the binder, how does the pKd read?
**A.** below the threshold

target: T12, MPP7, Q5T2T1; assay: holdup assay; set-up: key: below the threshold = too weak to quantify, mostly under pKd 3.1 to 4; conditions: plain residues with an end cap or a label only (N-terminal biotin on a linker: ado-ado)

**Q.** With B1 as the binder, how does the pKd read?
**A.** below the threshold

target: T13, MPDZ_12, O75970; assay: holdup assay; set-up: key: below the threshold = too weak to quantify, mostly under pKd 3.1 to 4; conditions: plain residues with an end cap or a label only (N-terminal biotin on a linker: ado-ado)

**Q.** B1 was tested. Which pKd did it give?
**A.** below the threshold

target: T14, NHERF3_3, Q5T2W1; assay: holdup assay; set-up: key: below the threshold = too weak to quantify, mostly under pKd 3.1 to 4; conditions: plain residues with an end cap or a label only (N-terminal biotin on a linker: ado-ado)

**Q.** How did the pKd turn out when B1 was run?
**A.** below the threshold

target: T15, LNX2_2, Q8N448; assay: holdup assay; set-up: key: below the threshold = too weak to quantify, mostly under pKd 3.1 to 4; conditions: plain residues with an end cap or a label only (N-terminal biotin on a linker: ado-ado)

**Q.** B1 was tested. Which pKd did it give?
**A.** below the threshold
